The target of data set [1] is T1, His-RcrR (Streptococcus mutans UA159) (UniProt Q8DUK6).
T1 sequence: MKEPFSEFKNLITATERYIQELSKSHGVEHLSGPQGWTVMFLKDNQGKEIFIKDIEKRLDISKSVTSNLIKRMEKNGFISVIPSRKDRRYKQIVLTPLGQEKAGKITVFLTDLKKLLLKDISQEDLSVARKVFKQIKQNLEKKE
Nature of the data set: EMSA. Background: Mobility shift assays separate free from complexed probe on a gel.

Data set [2] has as its target T1, His-RcrR (Streptococcus mutans UA159). In words: DNase I footprinting.

“AGCGGTTTGAGCACTTTCACTACAGCGAAAAAGCAATCGTTTAAAGTGACTTTATCACCATCAAGCTATAAAAAATTAAATTAGTTCTCATAGAAACTTTTTTCTTGACAATAGTTTAAGGAATCATTATAATAGTTTTCATGAGAACTATTATAATATTCTCATAAAAAGTGAGGTGTTTTT (double strand) [P3 (rcrR promoter fragment 3)]”: in data set [1], the binding result is “binds”.

In the case of “AAAAACTCCTTTAAATTTCGTTAAGGATAATTTTGAGCAGTAAAAAAGCTCCTAATATAAAAATAGGAGCTGCCAAATAATAGGCTGGTTTTTTTTATAGATGGCTTCTCCCAAACATCCTTATGTAATTCTTCAATATGGTAACATGAAAATAGGGAAAAAGCAAATTTGTTCAATAAAGCCA (double strand) [P1 (rcrR promoter fragment 1)]”, in data set [1], the binding entry is “no binding”.

With “AGCGGTTTGAGCACTTTCACTACAGCGAAAAAGCAATCGTTTAAAGTGACTTTATCACCATCAAGCTATAAAAAATTAAATTAGTTCTCATAGAAACTTTTTTCTTGACAATAGTTTAAGGAATCATTATAATAGTTTTCATGAGAACTATTATAATATTCTCATAAAAAGTGAGGTGTTTTT (double strand) [P3 FAM-labeled]”, the binding result in data set [2] is on record as “binds”.

Consider “GTCTTAGAAAGTAGTCAGAAGGATTAGACTTGTTTGGAAATGAATTATTCTTTTTATGGTTGTGGCTTTTCTTAAGTAATGAAGGCGAAAAGTGAATAGTCCAGCGGACTATTTTAGAAATTCAAGGGAGTTCCATTCTTTTTGGCGCCCCTAGGTCTTACCAACACCTCATGATAGAACTATA (double strand) [P2 (rcrR promoter fragment 2)]”, for which the binding entry in data set [1] was “no binding”.

Consider “TAAATTTTTCCTAGGTTAACCTAGTCCTCCTTTAATATGATAACAGTACGTTTACTTTTTCATTGTAAACGATTACAAATTTGTTGGCAAGTTGTCCATAGGAAAAAAGCGCAATTTTTGTTAAAATAAAGTCAGTTGTATGCATTTTTTTAGACAAATTAGATTGAATTGCTTA (double strand) [PSMU_2038 (trehalose PTS promoter)]”, for which the binding entry in data set [1] was “binds”.

Source of the values: paper PMC8407328.
